Here are results for 1 substance from paper PMC7393995.

The experiment has as its target CD162 (P-selectin glycoprotein ligand-1), mouse, on MLL-AF9 AML blasts (mouse (endogenous in murine MLL-AF9 AML blasts)) (UniProt Q62170). In words: flow cytometry on cells; E-selectin–IgM supernatant precomplexed with AF647 anti-human IgM F(ab)2, added to KIT+-enriched BM cells from leukemic mice (WT or Selplg-/- MLL-AF9 AML), 30 min on ice; gated on GFP+ KIT+ blasts; control: empty-vector IgM.
UniProt Q62170, sequence (Q62170 42-397): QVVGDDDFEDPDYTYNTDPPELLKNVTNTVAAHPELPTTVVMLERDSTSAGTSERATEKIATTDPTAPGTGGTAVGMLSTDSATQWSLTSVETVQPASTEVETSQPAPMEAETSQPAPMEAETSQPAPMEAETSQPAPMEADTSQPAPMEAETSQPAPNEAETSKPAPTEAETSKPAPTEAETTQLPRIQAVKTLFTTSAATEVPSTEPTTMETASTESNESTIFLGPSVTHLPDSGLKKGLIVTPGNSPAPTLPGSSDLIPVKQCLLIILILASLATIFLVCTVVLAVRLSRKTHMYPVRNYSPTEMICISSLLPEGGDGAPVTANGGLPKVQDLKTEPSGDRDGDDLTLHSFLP

For “recombinant E-selectin–human-IgM fusion protein (from UniProt P16581 22-610)”, the percent of gated AML blasts that bound E-selectin–IgM came to 65%.
